The chains are these.
B1: CPEB3 Ribozyme (parent)
chain: GGGGGCCACAGCAGAAGCGUUCACGUCGCGGCCCCUGUCAGAUUCUGGUGAAUCUGCGAAUUCUGCUGU

The variants in this data set derive from B1. Description: self-cleavage, relative activity (ratio to wild type); higher = more cleavage; co-transcriptional.
On to GGGGGUCAGAGCAGAAGCGUUCACGUCGCGGCCCCUGUCAGAUUCUGGUGAAUCUGCGAAUUCUGCUGU, for which the self-cleavage worked out at 1.02.

With GGGGGUCAUAGCAGAAGCGUUCACGUCGCGGCCCCUGUCAGAUUCUGGUGAAUCUGCGAAUUCUGCUGU, the self-cleavage worked out at 1.05.

Take GGGGGUCAAAGCAGAAGCGUUCACGUCGCGGCCCCUGUCAGAUUCUGGUGAAUCUGCGAAUUCUGCUGU: the self-cleavage came to 1.03.

With GGGGGUCUCAGCAGAAGCGUUCACGUCGCGGCCCCUGUCAGAUUCUGGUGAAUCUGCGAAUUCUGCUGU, the self-cleavage was 1.01.

Regarding GGGGGUCCCAGCAGAAGCGUUCACGUCGCGGCCCCUGUCAGAUUCUGGUGAAUCUGCGAAUUCUGCUGU, the self-cleavage stood at 0.941.

GGGGGUCGCAGCAGAAGCGUUCACGUCGCGGCCCCUGUCAGAUUCUGGUGAAUCUGCGAAUUCUGCUGU: the self-cleavage amounted to 0.813.

As to GGGGGUCACAGCAGAAGCGUUCACGUCGCGGCCUCUGUCAGAUUCUGGUGAAUCUGCGAAUUCUGCUGU, the self-cleavage amounted to 0.944.

In the case of GGGGGUCACAGCAGAAGCGUUCACGUCGCGGCCACUGUCAGAUUCUGGUGAAUCUGCGAAUUCUGCUGU, the self-cleavage worked out at 0.426.

Consider GGGGGUCACAGCAGAAGCGUUCACGUCCCGGCCCCUGUCAGAUUCUGGUGAAUCUGCGAAUUCUGCUGU, for which the self-cleavage was 0.0878.

Take GGGGGUCACAGCAGAAGCGUUCACGUCACGGCCCCUGUCAGAUUCUGGUGAAUCUGCGAAUUCUGCUGU: the self-cleavage is 0.0973.

On to GGGGGUCACUGCAGAAGCGUUCACGUCGCGGCCCCUGUCAGAUUCUGGUGAAUCUGCGAAUUCUGCUGU, for which the self-cleavage came out at 0.999.

On to GGGGGUCACCGCAGAAGCGUUCACGUCGCGGCCCCUGUCAGAUUCUGGUGAAUCUGCGAAUUCUGCUGU, for which the self-cleavage is 0.985.

Regarding GGGGGUAACAGCAGAAGCGUUCACGUCGCGGCCCCUGUCAGAUUCUGGUGAAUCUGCGAAUUCUGCUGU, the self-cleavage amounted to 0.254.

In the case of GGGGGUGACAGCAGAAGCGUUCACGUCGCGGCCCCUGUCAGAUUCUGGUGAAUCUGCGAAUUCUGCUGU, the self-cleavage is 0.198.

On to GGGGGUCACAGCAAAAGCGUUCACGUCGCGGCCCCUGUCAGAUUCUGGUGAAUCUGCGAAUUCUGCUGU, for which the self-cleavage was 0.672.

On to GGGGGUCACAGCAGAAGCGUUCACGUCGCGGCCCCUGUCAGAUUCUGGUGAAUCUGCGAAUUCUGUUGU, for which the self-cleavage is 0.991.

GGGGGUCACAGCAGAAGCGUUCACGUCGCGGCCCCUGUCAGAUUCUGGUGAAUCUGCGAAUUCUGAUGU: the self-cleavage came out at 0.881.

Regarding GGGGGUCACAGCAGAAGCGUUCACGUCGCGGCCCCUGUCAGAUUCUGGUGAAUCUGCGAAUUCUGGUGU, the self-cleavage is 0.939.

As to GGGGGUCACAGCAGAAGCGUUCACGUCGCGCCCCCUGUCAGAUUCUGGUGAAUCUGCGAAUUCUGCUGU, the self-cleavage amounted to 0.536.

As to GGGGGUCACAGCAGAAGCGUUCACGUCGCGGCUCCUGUCAGAUUCUGGUGAAUCUGCGAAUUCUGCUGU, the self-cleavage is 0.863.

Regarding GGGGGUCACAGCAGAAGCGUUCACGUCGCGGUCCCUGUCAGAUUCUGGUGAAUCUGCGAAUUCUGCUGU, the self-cleavage came to 0.826.

For GGGGGUCACAGCAGAAGCGUUCACGUCGCGGGCCCUGUCAGAUUCUGGUGAAUCUGCGAAUUCUGCUGU, the self-cleavage turned out to be 0.246.

On to GGGGGUCACACCAGAAGCGUUCACGUCGCGGCCCCUGUCAGAUUCUGGUGAAUCUGCGAAUUCUGCUGU, for which the self-cleavage amounted to 0.828.

With GGGGGUCACAUCAGAAGCGUUCACGUCGCGGCCCCUGUCAGAUUCUGGUGAAUCUGCGAAUUCUGCUGU, the self-cleavage was 0.876.

In the case of GGGGGUCACAGCAGAAGCGUUCACGUCGCGGCCCCUGUCAGAUUCUGGUGAAUCUGCGAAUUCUGCUGU, the self-cleavage is 1.01.

For GGGGGUCACAGCAGAAGCGUUCACGUCGCCGCCCCUGUCAGAUUCUGGUGAAUCUGCGAAUUCUGCUGU, the self-cleavage was found to be 0.348.

Consider GGGGGUCACAGCAGAAGCGUUCACGUCGCUGCCCCUGUCAGAUUCUGGUGAAUCUGCGAAUUCUGCUGU, for which the self-cleavage was determined as 0.235.

Turning to GGGGGUCACAGCAGAAGCGUUCACGUCGCAGCCCCUGUCAGAUUCUGGUGAAUCUGCGAAUUCUGCUGU, the self-cleavage turned out to be 0.632.

Consider GGGGGUCACAGCAGAAGCGUUGACGUCGCGGCCCCUGUCAGAUUCUGGUGAAUCUGCGAAUUCUGCUGU, for which the self-cleavage was determined as 0.205.

As to GGGGGUCACAGCAGAAGCGUUCACGUCGCGGCCCCUGUCAGCUUCUGGUGAAUCUGCGAAUUCUGCUGU, the self-cleavage worked out at 0.966.

As to GGGGGUCACAGCAGAAGCGUUCACGUCGCGGCCCCUGUCAGUUUCUGGUGAAUCUGCGAAUUCUGCUGU, the self-cleavage is 0.957.

Take GGGGGUCACAGCAGAAGCGUUCACGUAGCGGCCCCUGUCAGAUUCUGGUGAAUCUGCGAAUUCUGCUGU: the self-cleavage worked out at 0.369.

Take GGGGGUCACAGCAGAAGCGUUCACGUGGCGGCCCCUGUCAGAUUCUGGUGAAUCUGCGAAUUCUGCUGU: the self-cleavage amounted to 0.199.

For GGGGGUCACAGCAGGAGCGUUCACGUCGCGGCCCCUGUCAGAUUCUGGUGAAUCUGCGAAUUCUGCUGU, the self-cleavage came out at 0.981.

With GGGGGUCACAGCAGCAGCGUUCACGUCGCGGCCCCUGUCAGAUUCUGGUGAAUCUGCGAAUUCUGCUGU, the self-cleavage worked out at 0.802.

Turning to GGGGGUCACAGCAGAAGCGUUCCCGUCGCGGCCCCUGUCAGAUUCUGGUGAAUCUGCGAAUUCUGCUGU, the self-cleavage worked out at 0.953.

GGGGGUCACAGCAGAAGCGUUCUCGUCGCGGCCCCUGUCAGAUUCUGGUGAAUCUGCGAAUUCUGCUGU: the self-cleavage was 0.999.

Consider GGGGGUCACAGCAGAAGCGUUCACGUCGCGGCCCAUGUCAGAUUCUGGUGAAUCUGCGAAUUCUGCUGU, for which the self-cleavage is 0.189.

As for GGGGGUCACAGCAGAGGCGUUCACGUCGCGGCCCCUGUCAGAUUCUGGUGAAUCUGCGAAUUCUGCUGU, the self-cleavage came out at 0.986.

As for GGGGGUCACAGCAGACGCGUUCACGUCGCGGCCCCUGUCAGAUUCUGGUGAAUCUGCGAAUUCUGCUGU, the self-cleavage was determined as 0.12.

As for GGGGGUCACAGCAGAUGCGUUCACGUCGCGGCCCCUGUCAGAUUCUGGUGAAUCUGCGAAUUCUGCUGU, the self-cleavage stood at 0.841.

For GGGGGUCACAGCAGAAGCGUUCACGUCGCGGCCCCUGUCAGAUUCUGGUGAAUCUGCGAGUUCUGCUGU, the self-cleavage came out at 0.85.

Turning to GGGGGUCACAGCAGAAGCGUUCACGUCGCGGCCCCUGUCAGAUUCUGGUGAAUCUGCGAUUUCUGCUGU, the self-cleavage amounted to 0.401.

As to GGGGGUCACAGCAGAAGCGUUCACGUCGCGGCCCCUGUCAGAUUCUGGUGAAUCUGCGACUUCUGCUGU, the self-cleavage turned out to be 0.318.

Regarding GGGGGUCACAGCAGAAGCGUUCACGUCGCGGCCCCUGUCAGAUUCUGGUGCAUCUGCGAAUUCUGCUGU, the self-cleavage worked out at 0.905.

For GGGGGUCACAGCAGAAGCGUUCACGUCGCGGCCCCUGUCAGAUUGUGGUGAAUCUGCGAAUUCUGCUGU, the self-cleavage was 1.02.

In the case of GGGGGUCACAGCAGAAGCGUUCACGUCGCGGCCCCUGUCAGAUUUUGGUGAAUCUGCGAAUUCUGCUGU, the self-cleavage came out at 1.

For the variant GGGGGUCACAGCAGAAGCGUUCACGUCGCGGCCCCUGUCAGAUUAUGGUGAAUCUGCGAAUUCUGCUGU, the self-cleavage came to 1.02.

As to GGGGGUCACAGCAGAAGCGUUCACGUCGCGGCCCCUGUCAGAUUCUGGUGAAUGUGCGAAUUCUGCUGU, the self-cleavage is 0.733.

Regarding GGGGGUCACAGCAGAAGCGUUCACGUCGCGGCCCCUGUCAGAUUCUGGUGAAUAUGCGAAUUCUGCUGU, the self-cleavage came to 0.847.

GGGGGUCACAGCAGAAGCGUUCACGUCGCGGCCCCUGUCAGAUUCUGGUGAAUCUGCGGAUUCUGCUGU: the self-cleavage is 0.961.

For GGGGGUCACAGCAGAAGCGUUCACGUCGCGGCCCCUGUCAGAUUCUGGUGAAUCUGCGUAUUCUGCUGU, the self-cleavage was 0.733.

In the case of GGGGGUCACAGCAGAAGCGUUCACGUCGCGGCCCCUGUCAGAUUCUGGUGAAUCUGCGCAUUCUGCUGU, the self-cleavage worked out at 0.586.

GGGGGUCACAGCAGAAGCGUUCAUGUCGCGGCCCCUGUCAGAUUCUGGUGAAUCUGCGAAUUCUGCUGU: the self-cleavage worked out at 0.709.

Take GGGGGUCACAGCAGAAGCGUUCAAGUCGCGGCCCCUGUCAGAUUCUGGUGAAUCUGCGAAUUCUGCUGU: the self-cleavage is 0.582.

Turning to GGGGGUCACAGCAGAAGCGUUCACGUCGCGGCCCCUGUCUGAUUCUGGUGAAUCUGCGAAUUCUGCUGU, the self-cleavage was 0.835.

Regarding GGGGGUCACAGCAGAAGCGUUCACGUCGCGGCCCCUGUCCGAUUCUGGUGAAUCUGCGAAUUCUGCUGU, the self-cleavage is 0.506.

For the variant GGGGGUCACAGCAGAAGCGUUCACGUCGCGGCCCCUGUUAGAUUCUGGUGAAUCUGCGAAUUCUGCUGU, the self-cleavage was found to be 0.955.

Turning to GGGGGUCACAGCAGAAGCGUUCACGUCGCGGCCCCUGUGAGAUUCUGGUGAAUCUGCGAAUUCUGCUGU, the self-cleavage was determined as 0.899.

As for GGGGGUCACAGCAGAAGCGUUCACGUCGCGGCCCCUGUCAGAUUCUGGUGAUUCUGCGAAUUCUGCUGU, the self-cleavage came to 0.996.

Turning to GGGGGUCACAGCAGAAGCGUUCACGUCGCGGCCCCUGUCAGAUUCUGGUGACUCUGCGAAUUCUGCUGU, the self-cleavage worked out at 0.956.

With GGGGGUCACAGCAGAACCGUUCACGUCGCGGCCCCUGUCAGAUUCUGGUGAAUCUGCGAAUUCUGCUGU, the self-cleavage worked out at 0.0825.

As to GGGGGUCACAGCAGAAACGUUCACGUCGCGGCCCCUGUCAGAUUCUGGUGAAUCUGCGAAUUCUGCUGU, the self-cleavage was 0.315.

With GGGGGUCACAGCAGAAGCGUUCACGUCGCGGCCCCUGUCAGAUUCUGGUGAAUCUGAGAAUUCUGCUGU, the self-cleavage was 0.362.

Take GGGGGUCACAGCAGAAGCGUUCACGUCGCGGCCCCUGUCAGAUUCUGGUGAAUCUGGGAAUUCUGCUGU: the self-cleavage came to 0.266.

On to GGGGGUCACAGCAGAAGCGUUCACGUCGCGGCCCCUGUCAGAUUCUGGUGAAUCUGUGAAUUCUGCUGU, for which the self-cleavage came out at 0.363.

Take GGGGGUCACAGCAGAAGAGUUCACGUCGCGGCCCCUGUCAGAUUCUGGUGAAUCUGCGAAUUCUGCUGU: the self-cleavage came out at 0.119.

For GGGGGUCACAGCCGAAGCGUUCACGUCGCGGCCCCUGUCAGAUUCUGGUGAAUCUGCGAAUUCUGCUGU, the self-cleavage was found to be 0.85.

For the variant GGGGGUCACAGCAGAAGCAUUCACGUCGCGGCCCCUGUCAGAUUCUGGUGAAUCUGCGAAUUCUGCUGU, the self-cleavage is 0.117.

Turning to GGGGGUCACAGCAGAAGCCUUCACGUCGCGGCCCCUGUCAGAUUCUGGUGAAUCUGCGAAUUCUGCUGU, the self-cleavage is 0.124.

For GGGGGGCACAGCAGAAGCGUUCACGUCGCGGCCCCUGUCAGAUUCUGGUGAAUCUGCGAAUUCUGCUGG, the self-cleavage amounted to 0.639.

GGGGGUCACAGCAGAAGCGUUCACGUCGGGGCCCCUGUCAGAUUCUGGUGAAUCUGCGAAUUCUGCUGU: the self-cleavage stood at 0.259.

As for GGGGGUCACAGCAGAAGCGUUCACGUCGCGGCCCCUGUCAGAUUCUGGUGAAUCUGCGAAUUUUGCUGU, the self-cleavage was found to be 1.01.

Regarding GGGGGUCACAGCAGAAGCGUUCACGUCGCGGCCCCUGUCAGAUUCUGGUGAAUCUGCGAAUUGUGCUGU, the self-cleavage is 0.808.

As for GGGGGUCACAGGAGAAGCGUUCACGUCGCGGCCCCUGUCAGAUUCUGGUGAAUCUGCGAAUUCUGCUGU, the self-cleavage is 0.726.

Regarding GGGGGUCACAGAAGAAGCGUUCACGUCGCGGCCCCUGUCAGAUUCUGGUGAAUCUGCGAAUUCUGCUGU, the self-cleavage is 0.676.

As to GGGGGUCACAGUAGAAGCGUUCACGUCGCGGCCCCUGUCAGAUUCUGGUGAAUCUGCGAAUUCUGCUGU, the self-cleavage was determined as 0.987.

Turning to GGGGGUCACAGCAGAAGCGUUCACCUCGCGGCCCCUGUCAGAUUCUGGUGAAUCUGCGAAUUCUGCUGU, the self-cleavage turned out to be 0.13.

Source of the values: the RNAGym collection of RNA variant scans (doi:10.7554/elife.80360).
